B1: Proline-rich protein 14 (Homo sapiens), Q9BWN1 (parent)
chain: MDLPGDSSPPGQPRLCRQPLTRALWGARSPKRPRLQLPGAPSPLEKASRRVLAVVLEDVMAVHMVPVVPSKQTSIPQHHSYHQDPVHRQPPASPPRQAGWSSQARPPDPLCLCREPLSRIHRTSSTLRRRSRTTPGPEEGPSQKVDRAPQPTLVVMLEDIASPRPPAEGFIDETPNFIIPAQRAEPMRIVRQPTPPPGDLEPPFQPSALPADPLESPPTAPDPALELPSTPPPSSLLRPRLSPWGLAPLFRSVRSKLESFADIFLTPNKTPQPPPPSPPMKLELKIAISEAEQSGAAEGTASVSPRPPIRQWRTQDHNTPALLPKPSLGRSYSCPDLGPPGPGTCTWPPAPPQPSRPRPRRHTVGGGEMARAPPPPRPCLRKEVFPLGGVGASPSLTTSCSSTASTSFSEPAEPRLGSTKGKEPRASKDQVLSEPETKTMGKVSRFRIRRTPARPQLNLTPMGLPRPIRLNKKEFSLEEIYTNKNYQSPTTRRTFETIFEEPRERNGTLIFTSSRKLRRAVEFRDSSLPRSRRPSRGVRAAGGRTVPPNVAPSPDVGPLLQQRLEELDALLLEEETVDREQPHWT
B2: Coiled-coil domain-containing protein 33 (Homo sapiens), Q8N5R6-5 (parent)
chain: MGEPGPPSPPAPKAAPGLIDSFSEMNNYRRAMQKMAEDILSLRRQASILEGENRILRSRLAQQEEEEGQGKASEAQNTVSMKQKLLLSELDMKKLRDRVQHLQNELIRKNDREKELLLLYQAQQPQAALLKQYQGKLQKMKALEETVRHQEKVIEKMERVLEDRLQDRSKPPPLNRQQGKPYTGFPMLSASGLPLGSMGENLPVELYSVLLAENAKLRTELDKNRHQQAPIILQQQALPVDPGELGAGGDLTERLQETHGPGHSECTETLPAQDLLSGTSDKFNLLAKLEHAQSRILSLESQLEDSARRWGREKQDLATRLQEQEKGFRHPSNSIIIEQPVSDPPGVAPRGSGGGAGSHRTPKVTGP
partner: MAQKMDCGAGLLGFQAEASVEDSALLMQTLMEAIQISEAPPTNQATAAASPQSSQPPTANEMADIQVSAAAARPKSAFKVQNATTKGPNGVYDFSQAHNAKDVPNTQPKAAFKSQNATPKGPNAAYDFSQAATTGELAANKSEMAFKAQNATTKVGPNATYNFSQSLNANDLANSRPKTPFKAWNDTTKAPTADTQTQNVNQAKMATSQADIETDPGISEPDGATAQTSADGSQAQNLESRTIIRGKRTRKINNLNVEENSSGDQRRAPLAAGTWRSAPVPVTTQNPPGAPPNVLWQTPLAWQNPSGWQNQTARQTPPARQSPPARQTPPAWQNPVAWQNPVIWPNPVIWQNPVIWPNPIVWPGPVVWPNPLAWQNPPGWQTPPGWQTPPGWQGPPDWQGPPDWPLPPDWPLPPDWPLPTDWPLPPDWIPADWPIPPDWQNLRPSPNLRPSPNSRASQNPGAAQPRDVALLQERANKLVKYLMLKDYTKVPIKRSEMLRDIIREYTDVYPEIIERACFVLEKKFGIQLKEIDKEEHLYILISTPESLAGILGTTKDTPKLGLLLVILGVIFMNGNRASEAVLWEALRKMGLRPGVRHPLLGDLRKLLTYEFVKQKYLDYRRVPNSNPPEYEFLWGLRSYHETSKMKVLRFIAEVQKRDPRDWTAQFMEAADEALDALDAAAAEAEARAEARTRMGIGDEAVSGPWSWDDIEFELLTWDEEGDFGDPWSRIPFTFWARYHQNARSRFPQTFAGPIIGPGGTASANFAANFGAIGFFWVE
B3: Cilium assembly protein DZIP1L (Homo sapiens), Q8IYY4 (parent)
chain: MQSPAATAEGLSGPLFGAYTFPTFKFQPRHDSMDWRRISTLDVDRVARELDVATLQENIAGITFCNLDREVCSRCGQPVDPALLKVLRLAQLIIEYLLHCQDCLSASVAQLEARLQTSLGQQQRGQQELGRQADELKGVREESRRRRKMISTLQQLLMQTGTHSYHTCHLCDKTFMNATFLRGHIQRRHAGVAEGGKQKKQEQPVEEVLEELRAKLKWTQGELEAQREAERQRQLQEAELIHQREIEAKKEFDKWKEQEWTKLYGEIDKLKKLFWDEFKNVAKQNSTLEEKLRALQSHSVMESKLGSLRDEESEEWLRQARELQALREKTEIQKTEWKRKVKELHEEHMAEKKELQEENQRLQASLSQDQKKAAAQSQCQISTLRAQLQEQARIIASQEEMIQSLSLRKVEGIHKVPKAVDTEEDSPEEEMEDSQDEQHKVLAALRRNPTLLKHFRPILEDTLEEKLESMGIRKDAKGISIQTLRHLESLLRVQREQKARKFSEFLSLRGKLVKEVTSRAKERQENGAVVSQPDGQPSVKSQQSTLVTREAQPKTRTLQVALPSTPAEPPPPTRQSHGSHGSSLTQVSAPAPRPGLHGPSSTPPSSGPGMSTPPFSSEEDSEGDRVQRVSLQPPKVPSRMVPRPKDDWDWSDTETSEENAQPPGQGSGTLVQSMVKNLEKQLEAPAKKPAGGVSLFFMPNAGPQRAATPGRKPQLSEDESDLEISSLEDLPLDLDQREKPKPLSRSKLPEKFGTGPQSSGQPRVPAW
B4: Ligand of Numb protein X 2 (Homo sapiens), Q8N448 (parent)
chain: MGTTSDEMVSVEQTSSSSLNPLCFECGQQHWTRENHLYNYQNEVDDDLVCHICLQPLLQPLDTPCGHTFCYKCLRNFLQEKDFCPLDRKRLHFKLCKKSSILVHKLLDKLLVLCPFSSVCKDVMQRCDLEAHLKNRCPGASHRRVALERRKTSRTQAEIENENGPTLLDPAGTLSPEADCLGTGAVPVERHLTSASLSTWSEEPGLDNPAFEESAGADTTQQPLSLPEGEITTIEIHRSNPYIQLGISIVGGNETPLINIVIQEVYRDGVIARDGRLLAGDQILQVNNYNISNVSHNYARAVLSQPCNTLHLTVLRERRFGNRAHNHSDSNSPREEIFQVALHKRDSGEQLGIKLVRRTDEPGVFILDLLEGGLAAQDGRLSSNDRVLAINGHDLKYGTPELAAQIIQASGERVNLTIARPGKPQPGNTIREAGNHSSSSQHHTPPPYYSRPSSHKDLTQCVTCQEKHITVKKEPHESLGMTVAGGRGSKSGELPIFVTSVPPHGCLARDGRIKRGDVLLNINGIDLTNLSHSEAVAMLKASAASPAVALKALEVQIVEEATQNAEEQPSTFSENEYDASWSPSWVMWLGLPSTLHSCHDIVLRRSYLGSWGFSIVGGYEENHTNQPFFIKTIVLGTPAYYDGRLKCGDMIVAVNGLSTVGMSHSALVPMLKEQRNKVTLTVICWPGSLV
partner: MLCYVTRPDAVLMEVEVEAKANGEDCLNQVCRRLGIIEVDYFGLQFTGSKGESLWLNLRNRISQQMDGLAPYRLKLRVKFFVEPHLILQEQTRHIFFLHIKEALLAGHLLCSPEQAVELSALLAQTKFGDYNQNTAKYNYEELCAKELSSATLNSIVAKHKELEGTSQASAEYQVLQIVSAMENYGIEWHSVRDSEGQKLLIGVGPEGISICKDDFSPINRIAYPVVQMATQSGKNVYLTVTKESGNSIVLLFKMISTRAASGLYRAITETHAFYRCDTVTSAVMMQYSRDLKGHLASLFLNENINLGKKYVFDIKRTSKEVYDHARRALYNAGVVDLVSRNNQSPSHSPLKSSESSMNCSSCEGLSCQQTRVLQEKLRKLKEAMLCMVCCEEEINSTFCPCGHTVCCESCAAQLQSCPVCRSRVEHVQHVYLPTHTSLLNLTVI

Variants of: B1
Conditions: with cbx5_human CBX5, P45973
Chain of cbx5_human CBX5, P45973 (P45973 whole entry): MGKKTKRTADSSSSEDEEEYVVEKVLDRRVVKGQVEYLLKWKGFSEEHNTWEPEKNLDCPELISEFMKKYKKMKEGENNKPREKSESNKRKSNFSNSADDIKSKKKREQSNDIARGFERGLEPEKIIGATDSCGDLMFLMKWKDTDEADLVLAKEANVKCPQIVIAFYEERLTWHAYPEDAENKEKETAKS

Row | Variant | effect of a mutation on the interaction
1 | R114L | with no effect
2 | P359L | with no effect

Variants of: B2
Conditions: with magd1_human MAGED1, Q9Y5V3

Row | Variant | effect of a mutation on the interaction
3 | M25V | with no effect
4 | R30L | with no effect
5 | G196R | with no effect
6 | P203L | with no effect

Variants of: B3
Conditions: with cep76_human CEP76, Q8TAP6
Chain of cep76_human CEP76, Q8TAP6 (Q8TAP6 whole entry): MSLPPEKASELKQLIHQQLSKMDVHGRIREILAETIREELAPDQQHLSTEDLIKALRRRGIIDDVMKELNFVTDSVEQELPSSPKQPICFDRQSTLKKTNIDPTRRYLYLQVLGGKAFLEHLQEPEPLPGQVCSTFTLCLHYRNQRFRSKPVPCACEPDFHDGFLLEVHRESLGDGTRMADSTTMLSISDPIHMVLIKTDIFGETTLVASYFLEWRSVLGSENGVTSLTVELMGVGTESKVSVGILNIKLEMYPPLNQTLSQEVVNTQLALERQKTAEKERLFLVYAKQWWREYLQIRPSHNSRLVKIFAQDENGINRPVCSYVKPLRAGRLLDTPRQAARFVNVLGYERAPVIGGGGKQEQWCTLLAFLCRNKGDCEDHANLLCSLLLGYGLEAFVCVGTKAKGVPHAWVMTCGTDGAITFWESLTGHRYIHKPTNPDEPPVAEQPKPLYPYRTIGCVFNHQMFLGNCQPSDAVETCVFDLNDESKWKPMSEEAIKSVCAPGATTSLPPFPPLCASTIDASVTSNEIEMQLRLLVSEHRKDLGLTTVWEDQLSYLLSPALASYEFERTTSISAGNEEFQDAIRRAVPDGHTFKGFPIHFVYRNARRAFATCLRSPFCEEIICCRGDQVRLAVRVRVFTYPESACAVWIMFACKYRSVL

Row | Variant | effect of a mutation on the interaction
7 | R88C | with no effect
8 | G595E | with no effect
9 | R625H | with no effect

Variants of: B4
Conditions: with mylip_human MYLIP

Row | Variant | effect of a mutation on the interaction
10 | S198P | with no effect
